Paper PMC11546553, “Chitin Translocation Is Functionally Coupled with Synthesis in Chitin Synthase” (International Journal of Molecular Sciences, 2024)

Target: the molecule itself
Assay: cryo-EM structure; purified PsCHS at 3 mg/mL in digitonin, incubated with 0.5 mM UDP-GlcNAc and 1 mM Mn2+ for 15 min or 40 min at 25 °C before freezing; UDP/Mn2+-bound state resolved for both samples

B1: Phytophthora sojae chitin synthase 1 (enzyme)
chain: MSGAPPPSSGFAPRSYGQQPLSHAPRSSMMSVEYDGIPLPPPSIRSCGSQQYVTSYIPTGAAFPPSSVQDMISSMKSYASATDLVRTYSEIPSVEEALSTLDRAAAALNARRYRDALKLYLEGGYAMANVAERQANPKICNLLTSKGFETLNWCARLCDWIEGRIKEKHPRPGVHKVGIPVSNWDEDWVGPFMDEEEARRMWYTPVYCPHPIDFSNLGYRLRCVETGRRPRLMICITMYNEGPQQLKATLKKLANNLAYLKEQMPGDEKSLTGAFAGDDVWQNVLVCIVADGREQVHPKTLDYLEAIGLYDEDLLTINSAGIGAQCHLFEHTLQLSVNGKCLLPIQTVFALKENKASKLDSHHWYFNAFAEQIQPEYTAVMDVGTMLTKSALYHLLFAFERNHQIGGACGQLTVDNPFENLSNWVISAQHFEYKISNILDKSLESCFGFISVLPGAFSAYRYEAIRGAPLDAYFQTLNIELDVLGPFIGNMYLAEDRILSFEVVARKNCNWTMHYVKDAVARTDVPHDLVGLISQRKRWLNGAFFATLFSIWNWGRIYSESKHTFVRKMAFLVFYVYHLLYTAFGFFLPANLYLALFFIVFQGFQQNRLEFIDTSEYSQTVLDCAVYIYNFSYLFGLLMLIIIGLGNNPKHMKLTYYFVGAVFGLMMMLSSLVGAGIFFSTPATVHSIVVSILTVGVYFIASALHGEVHHIFMTFTHYTALIPSFVNIFTIYSFCNLQDLSWGTKGLHDDPLLAASLDETEKGDFKDVIAKRRALEELRREEKERVENRKKNFEAFRTNVLLTWAFSNLIFALFVVYFASSSTYMPVLYIFVASLNTCRLLGSIGHWVYIHTEGLRGRVIDKSECGNGTGRYPQNSYVQLEEHYAALAEDQRTYASGRTNASVRTVNDVSSAA
notes: Phytophthora sojae chitin synthase 1 (PsCHS1), the PsCHS gene in pcDNA3.1; the final models lack residues 1-22, stretches within 40-90, 738-761 and 860-925; also called PsCHS; PsCHS1; source: HEK293F cells, transfected (pcDNA3.1), purified (digitonin solubilisation, Ni-NTA, Superose 6 Increase SEC)
stoichiometry N: 2
